# Test system: Saccharomyces cerevisiae
# Experiment: transcriptional activation domain activity (GFP:mCherry ratio, weighted mean of sorted bins, harmonized to initial dataset scale) (arbitrary fluorescence ratio units); higher = stronger transcriptional activation
# Conditions: beta-estradiol 1 µM; induction time 4 h
# Description: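 53-aa protein tiles (fungal proteins plus yeast TF control tiles) fused C-terminally to a DBD-estrogen-binding domain-mCherry synthetic TF, integrated in S. cerevisiae (URA3 locus) with a GFP reporter. Cells were induced with 1 uM beta-estradiol for 4 h at 30 C, FACS-sorted into 8 bins by GFP:mCherry ratio and barcodes sequenced. Activity is the read-weighted mean bin fluorescence (GFP:mCherry), averaged over barcodes (median 12); tiles under 50 reads were discarded. New active-learning values were harmonized by linear fit onto the scale of the initial (Hummel et al.) dataset. The assay saturates at low and high signal.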
row,Sequence,transcriptional activation domain activity
1,EAGREAGKAGREEKQVKQDEERTAEDTETGKHEEDRNGEQKQRDRKTRRGKIR,25300
2,EAKAEEAAPTEAPAADAPAAEPAAEASATEEAKPAEAAKEEKKEDRPKSPSLL,8420
3,EAKEGEDGEKEKPKRGRKRKEPAADAEDEAADGDAADGEEPPAKKAKPASKAA,61800
4,EAKKEGEHGAAPAGEHGAAPAAGGHGAEAKKEGEHGAAPAAGGHGAAPAAGGH,21300
5,EAKTDAETAVETQPEPKEEVATEETTKSAAKPAGAKKGGKKRAQPEKPADEAA,12500
6,EALMRRFISKGGFMTSRINWAIQSSGVDYLHLLIVSMEYLIRRFNLNARLAIT,49400
7,EALPDDLYFTDFVSPFTAAATTSVTTKTVKDTTPATNHMDDDIAMFDSLATTQ,47700
8,EAPAAEPVKETETAAEAAPAEAPAEAAAEETKEEKKEEKKEEKVKASKVGRRL,44900
9,EAPAPKKARGRPKKAAVKEDDAGSEEEAPAPKKAKGRLPKAVLKEEAESEAEA,12900
10,EAPAPVEEQPVQEPEPEAIPEPEPVPQETPQAYEEPPAPEPKPAPTPKAQPVQ,23300
11,EAPEPAADAPPPRRVRMSKPKVKTGCRECKTRRVKCDEARPACTRCTRGRREC,36800
12,EAPKPAPEQPKPKPVQEKPAAPAAETKEKGKAAPEPEAEDKKPARRPRKAKQP,8950
13,EAPREIKAKPEKKKAKPAEAAAPKKESKGKKVKADKKAGADKKADPAAAPAAG,15300
14,EAPVEAPIEVPVEAPVEAPVEAEKPAEEIETPAEAVVEKPAEETEKPAEAVVE,31900
15,EAQAEEEVAPAPKPRGRPRRAAAEAPAPEISKPTTRGRAKKVEAPAEDVIVVE,24100
16,EARNIVGIKNIDLYKGPLFVFWAPMNPSHVGWNGGMHLYAWRCKLLSNLPYHF,25600
17,EARRSTREREREEGKSSGGGKGRRGRSGKPRGGGRGAGASGANPGPGAAAGAE,29100
18,EARTLVMHAQQGFSFHFGCQMSLSGMMLLSYILLLPPIFTGYQLLWLLWIVFP,61400
19,EASLKAQKDEENESEEEGEGEEKEEGEKKEEEKKEEEKKEEEKKEDLEKLTEK,33100
20,EASPQPSPQPESQPAPEASPQPEPQPSSKPSPQPESQPVPEASPQPEPQPSPQ,18200
21,EASRSKAATAAAAAADGGKSAAAGEVEERKRKAKAEREAKKAKGALAAAAGAG,31600
22,EASSDGEGAASASDASGDRELVKAKAKKKKKAAGEEGDKPKKKKKSSPKKAKE,27100
23,EATEPAEKPKRKRGRPPGSKNKKTLAAQGGTGEASAAEPPPKRPRGRPPKRKP,34600
24,EAVESKPVKKAKGKPKKAIETPEPDAEESTGAEAVESKPVKRAKGKSKKAIKT,53100

row,Sequence,transcriptional activation domain activity
1,EAVKKSAERRDSATKSTSPAPAKEEKKEEGKKPEKKEAKPDDKKGEEAGEDKG,10800
2,EAVPHQDNDSFRSEKKEGEAEVQIVEDVGSSIYGCDRTQRTLKNRHIQLIGVG,50200
3,EAWILHMVVILGVNYLFTFYVWDFSYTDTELWNVTCYWKLGWLLPIPYTLICF,51000
4,EAYPEPEEEPTMEPIDLSDDALLQVSYRLQKQNLSSSIVLLLTNRCLFISKPY,49400
5,EDAEATPAAAVEAEDDAMVVDSEEPKKKSKKDKKEKKDKKRKAAETTEAETAN,16400
6,EDAGDDAAPSAKKANVSKKRKKADESDGENDKPVKTPKTKLKLTTKTPKEPSA,36100
7,EDASAGEGEEKKKRKKKKVEASSDEEGSGSDGSKRKSQSKRTKSSKKGRSDNG,40700
8,EDCDFLGDDTCSIVNHINCQHGINFDIQFANPDSFLPGSISKEKHHLLHCPNP,77900
9,EDDDERRRKESSSSSRRKDRDRDDDGHERKDRKDRKHGSHRDRETDREREKRK,33000
10,EDDDGKGNKQKTSEKRKLQNRQAQRNFRERKEKVSCPSSPAAPRASQGTRGSC,23900
11,EDDEELVEEVAKKGKGKGKGKAGKAAAAIGAAEGGKGRRGRKPKAKGAEEQGE,60600
12,EDEAPEPEAEEKKPSAKGRRASKVKQENDEEPEPEPVKQVAKAKRGSKKAVKE,40200
13,EDEAQGEEGEKAKKSRKRKRDEAAEGGKQKKEKAPPKPRAKKGSAEPKPKKAA,25900
14,EDEASASTDNDEATTKTEKQPKKKAKAEKVADCEAVVKKKAPAKRQSKKEANQ,41600
15,EDEASQPAKPRARPAPSRAQNRSKEKSSKTARKRKDKSPPASQQEPEQDEGSE,18600
16,EDEEASAAHAAPPTTTTAGGRGKKKKGGASRKKENSAAPSKSAKASAPANIPP,20700
17,EDEEDAVNGTALSEEDAAERDAKLKRLREEAERKALARRSQAVQRGLPRPANV,14900
18,EDEEDLSSKPRCQRCRKSKKGCDRQRPCQRCKDAGLSADQCVSEDEGNGRKGR,15700
19,EDEEEAPAKVIKAKRAPPKRKAPAKDDDDEESAEEKPKKKKAPSKKAAAKAQA,38200
20,EDEEEEAEKAESKPPKKARKSKAEPAVDEDEPAVKPKKKATAASKKRKAESEE,21100
21,EDEEEEEEEQEEEEEKEEEVLWAAAPEGGKPVEEEEEEEVVEAEEKKPGEEDA,24500
22,EDEEESSKEETEKQRNKLRELIYEFIAKDVASRVELAKYWLSEEWNCAVGPQT,35300
23,EDEEETAAARSTSKRTRRGRVLDDSDEEDDEAGTVSPAKAATGAESEGEAGAA,30000
24,EDEETARPKRKSPSAVLKSHTARVSRAVFGRDAKGASAYSCGFDSTVRTWDVE,49700

row,Sequence,transcriptional activation domain activity
1,EDEGEKDDDEEVKEVKEEGDNSGEEGKEGNGEEAKTEEDKPSEEQQQQAKEEA,< 6570
2,EDENKSKEETQEKKTNEPELNENNKDIAKKGEEEEEEEEADKDNNKTKKKKKN,27500
3,EDEQPAAPADGRKKTVTKGADKAGLGGTPVRKNATTAGRGRKPATAKKGASQP,32300
4,EDGDVDMGEADDKPAEPEAEIKTEEVETAAAPEPETEPKSTPAVPAAAAAAAA,24500
5,EDGEQKKQVLACSFCRERKIACGRPSAHSRDRTCNQCARRCMKCEHPTESRRG,13800
6,EDGESTKTKDAGRKRKRSTGEGEREDKGADGTKENKKKRKLASEKEKESDKEN,27400
7,EDGGEDGETGGKILTKAEKEKQKKEREKQRKKEQATPAKAAAEEKKVEAAPAA,32100
8,EDGNGHGTHCSGTIAGKKYGVAKKAHVYAVKVLRSNGSGSMSDVVKGVEFAAT,42400
9,EDGRGSRRRKSRSRGREEEDSSSRRRKDRSRSRSVDKERKKRKRDKSEDRKAR,31800
10,EDKAAEDGAAKKPKTTELPGGVKIQDMKVGSGPQAKPGKKIGMRYIGKLQGSN,30600
11,EDLRAAMEEEEEVEENEAEEEWVDVMKKHRVQASRLELLASGVGTGRTTSPVD,15900
12,EDRHSSKRRRERSRSPVRDTRRRSRSPAARGKNDEDRRDRRRSSSRERDRRRG,32600
13,EDRSEKRKRKRDDEVEPKKSKSKWKPEEKSDEDPKSTPKSNGGKRRRPERPEK,27300
14,EDSEEKPRKKTPRKAAASKPKSKGKKKADSDSGEESDAEPRAKKSATKGKGKK,25500
15,EDSEPEPQPQKSQSRRRQSRGRGRRGGDSDNESVARSDVSASGGRRNRQRKQK,22200
16,EDTVHSVRVKAHRMKKSESGETGWAELGVGVLRLKTHKETASRRMLLRNSGNG,58000
17,EEAAAPAASKGQGTAAAASGRSRNRRRGAGEDGKGKAERGGEAMTSAPSPAKP,13400
18,EEAAVESEAPKKKGRAKRVKPEPEVDDEPAVEQPKKKGRVKKAKVEPEPEADE,46900
19,EEAEKVPEKKPKAEEKAAEDGESSNPVHKCWNCGRTKSAVWRTKVMEDGKAVR,33200
20,EEAFVAINLRNLLTFGLTYFINDWILDDGVLFVFCILGMLFLVVCLMTIPLWI,29000
21,EEDAGATSEPASTPKLKPETKPKPKAAPKPKPKAEETDSSAKPKAKPKARASS,33000
22,EEDDVKSEKSSRSKRRESTKEEVASPVRSERGSDKSSRSKKRDIVAEAAAIVS,35500
23,EEDEEDEDDDDDDDDDDDDDDDDDDEKPVHHKKPAHHRHHHKSKPVHHESQPA,< 6570

# From the supplement of paper PMC12636428
